The results in this text go back to publication PMC9122588, “Control of bacterial immune signaling by a WYL domain transcription factor”.

This data set concerns the target T1, Pa CapW (Pseudomonas aeruginosa PA17, UniProt P0DX74 1-299).
T1 sequence: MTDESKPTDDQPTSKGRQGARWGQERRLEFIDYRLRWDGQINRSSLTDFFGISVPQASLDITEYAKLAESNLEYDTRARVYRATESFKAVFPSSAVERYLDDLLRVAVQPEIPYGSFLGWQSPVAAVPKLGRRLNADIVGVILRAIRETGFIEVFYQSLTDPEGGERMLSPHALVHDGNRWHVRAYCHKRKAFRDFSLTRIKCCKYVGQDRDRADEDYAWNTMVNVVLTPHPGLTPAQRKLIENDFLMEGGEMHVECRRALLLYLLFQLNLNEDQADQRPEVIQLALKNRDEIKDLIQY
In words: fluorescence polarization; 5 mM MgCl2; FP: 25 mM Tris pH 8.5, 50 mM NaCl, 5% glycerol, 5 mM MgCl2, 1 mM DTT, 0.01% NP-40 substitute, 50 nM DNA, 10 min, RT; EMSA: 50 mM Tris-HCl pH 8.5, 50 mM NaCl, 5. The note with it: protein: recombinant; tags: N-terminal His6-TEV, cleaved; chain copies: 2; label: 5'-6-FAM on one strand; blunt. On the technique in general: Polarisation of emitted light reports the rotation of a fluorescent probe.

The Kd is a measure of binding affinity in units of concentration.

B1: Probe #4 (dsDNA)
DNA 1: CTAAAAACTATGCGTATAGTAATAATACGC
DNA 2: GCGTATTATTACTATACGCATAGTTTTTAG
As for B1, the equilibrium dissociation constant (Kd) stood at 1 ± 0.1 µM.
